According to patent US20110311544A1:

Columns and labels:
[1] = biological target: CD71 (transferrin receptor) on human tumour cell lines (human) (UniProt P02786); assay: flow cytometry, biotin-OKT9 on A375 cells after pre-incubation with control ascites NS1 at 37° C. (no competitor)
[2] = biological target: CD71 (transferrin receptor) on human tumour cell lines (human) (UniProt P02786); assay: flow cytometry, biotin-OKT9 on A375 cells after pre-incubation with control ascites NS1 at 4° C. (no competitor)
[3] = biological target: CD71 (transferrin receptor) on human tumour cell lines (human) (UniProt P02786); assay: quantitative flow cytometry on A375 cells, background control, medium human AB serum, no Tf-Fe
[4] = biological target: CD71 (transferrin receptor) on human tumour cell lines (human) (UniProt P02786); assay: quantitative flow cytometry on A375 cells, background control, medium FCS, with Tf-Fe
[5] = biological target: CD71 (transferrin receptor) on human tumour cell lines (human) (UniProt P02786); assay: quantitative flow cytometry on A375 cells, background control, medium human AB serum, with Tf-Fe
[6] = biological target: CD71 (transferrin receptor) on human tumour cell lines (human) (UniProt P02786); assay: quantitative flow cytometry on A375 cells, background control, medium FCS, no Tf-Fe

UniProt P02786, sequence (P02786 whole entry): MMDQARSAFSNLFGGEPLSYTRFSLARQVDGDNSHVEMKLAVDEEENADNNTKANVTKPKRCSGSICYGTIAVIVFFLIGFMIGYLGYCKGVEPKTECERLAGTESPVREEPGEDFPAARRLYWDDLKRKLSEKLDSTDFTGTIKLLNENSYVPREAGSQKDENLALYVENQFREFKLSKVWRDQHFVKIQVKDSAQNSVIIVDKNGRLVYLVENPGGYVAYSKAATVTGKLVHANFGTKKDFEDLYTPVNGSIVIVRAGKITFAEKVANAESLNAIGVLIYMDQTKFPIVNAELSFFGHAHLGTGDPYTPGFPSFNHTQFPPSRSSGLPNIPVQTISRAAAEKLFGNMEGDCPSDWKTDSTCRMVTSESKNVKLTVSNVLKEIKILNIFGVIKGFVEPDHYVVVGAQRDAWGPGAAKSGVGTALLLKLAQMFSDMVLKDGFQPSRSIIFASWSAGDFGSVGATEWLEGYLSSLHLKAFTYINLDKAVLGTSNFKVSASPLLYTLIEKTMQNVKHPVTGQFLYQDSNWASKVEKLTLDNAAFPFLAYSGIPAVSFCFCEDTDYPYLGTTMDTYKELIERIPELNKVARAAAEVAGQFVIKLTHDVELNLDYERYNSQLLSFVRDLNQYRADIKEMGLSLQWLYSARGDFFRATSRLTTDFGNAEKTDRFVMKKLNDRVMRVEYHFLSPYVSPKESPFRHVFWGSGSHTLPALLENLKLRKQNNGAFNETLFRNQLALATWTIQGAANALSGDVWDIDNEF

For “biotin-labeled anti-CD71 mAb OKT9 (antibody)”, the Mean Fluorescence intensity [1] was 8.84 and the Mean Fluorescence intensity [2] was 6.53.

control ascites NS1 showed a Sites [3] of 5790 sites, a Sites [4] of 3310 sites and a Sites [5] of 5790 sites. For the same substance, the Sites [6] was 3250 sites.
